Results on 7 molecules are retold here after paper PMC3907030, “Using phage display selected antibodies to dissect microbiomes for complete de novo genome sequencing of low abundance microbes” (BMC Microbiology, 2013).

Substitutions are numbered along the chain they refer to.

What all share (details): partners not purified
Test [1] has as its target T1, L. acidophilus S-layer A protein (SlpA), on L. acidophilus ATCC 4356 cells (Lactobacillus acidophilus ATCC 4356, UniProt P35829).
T1 construct: the flow cytometry itself was done on whole bacteria; also called S-layer protein A; Surface layer protein A; source: endogenous, on intact L. acidophilus ATCC 4356 cells
Kind of test: flow cytometry on cells; scFv culture supernatant (200 μl, unpurified) incubated with 10^6-10^7 washed bacteria in PBS, 1 h at RT; detected with anti-SV5-PE; BD LSRII. Background: Flow cytometry measures light scatter and fluorescence of single cells or particles in a stream.

The target in test [2] is T2, L. acidophilus S-layer A protein (SlpA), on L. acidophilus ATCC 832 cells (Lactobacillus acidophilus ATCC 832; …, UniProt P35829).
T2 construct: the flow cytometry was done on whole bacteria; also called L. acidophilus st; source: endogenous, on intact L. acidophilus ATCC 832 cells
Described as above.

Test [3] concerns the target T3, L. acidophilus S-layer A protein (Lactobacillus acidophilus (ATCC 4356; …, UniProt P35829).
T3 construct: S-layer A protein (SlpA) of Lactobacillus acidophilus, Uniprot P35829; band of ~45 kDa; On the bacterial surface in flow cytometry; denatured (SDS, β-mercaptoethanol, boiled) on the blot; The MS search used an L. acidophilus NCFM database; also called SlpA; S-layer protein A
Kind of test: flow cytometry on cells; 200 μl scFv culture supernatant added to 10^6-10^7 washed bacteria in PBS, 1 h at RT; detected with anti-SV5-PE; BD LSRII.

T2 sequence (P35829 25-444): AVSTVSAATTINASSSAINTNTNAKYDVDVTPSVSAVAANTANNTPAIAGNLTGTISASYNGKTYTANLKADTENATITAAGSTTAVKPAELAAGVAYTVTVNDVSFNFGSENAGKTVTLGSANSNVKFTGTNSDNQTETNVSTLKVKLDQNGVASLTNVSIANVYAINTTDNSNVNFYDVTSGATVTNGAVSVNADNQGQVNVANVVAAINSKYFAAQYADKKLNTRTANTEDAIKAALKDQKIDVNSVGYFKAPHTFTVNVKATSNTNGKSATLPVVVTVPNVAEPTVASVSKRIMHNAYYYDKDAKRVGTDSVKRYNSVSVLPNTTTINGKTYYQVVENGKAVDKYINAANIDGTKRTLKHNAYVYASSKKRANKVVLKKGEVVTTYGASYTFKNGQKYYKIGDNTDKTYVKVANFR
T1 sequence (P35829 25-444): as above
T3 sequence (P35829 25-444): as above

B1: α-La1 scFv (scFv, V domains shown)
VH: QVQLQQSGPGLVKPSQTLSLACAISGDSVSSNSAAWNWIRQSPSRGLEWLGRIYYRSKWYNDYAVSVKSRITINPDTSKNQFSLQLNSVTPEDTAVYYCARERYGAFDIWGQGTMVTVSS
VL: SYELTQPPSASGTPGQRVTISCSGSSSNIGSNYVYWYQQLPGTAPKLLIYRNNQRPSGVPDRFSGSKSGTSASLAITGLQAEDEADYYCQSYDSSLSGYVFGTRTKLTVL
notes: residues before the VL; VL of α-La1; linker between VL and VH; VH of α-La1; residues between the VH and the SV5 tag; Expressed from pEP-GFP11 with an N-terminal PelB leader and C-terminal SV5, 6x His and GFP strand 11 tags; limits of VL, linker and VH and the reading of GAHA and AS as vector-derived residues are my surmise; also called anti-La1; α-La scFv; source: …
For the molecule B1, the binding result in test [1] and in test [2] was “binds” in each case.

B2: α-La4 scFv (scFv, V domains shown)
VH: B1 VH with T17I, A21T, A35D, I53T, S66L, E102G, R103S, Y104L
VL: QAVVTQEPSASETPGQRVTISCSGSDSNIGSNYVYWYQQVPGTAPKLVIYRNNQRPSGVPDRFSGSKSGTSASLGIRGLQSEDEADYYCAAWDDSVSGWVFGGRTKLTVL
notes: residues before the VL; VL of α-La4; linker between VL and VH; VH of α-La4; residues between the VH and the SV5 tag; Expressed from pEP-GFP11 with an N-terminal PelB leader and C-terminal SV5, 6x His and GFP strand 11 tags; limits of VL, linker and VH and the reading of GAHA and AS as vector-derived residues are my surmise; also called anti-La4; source: E. coli …
Take B2: the binding result in test [1] and in test [2] was “binds” throughout.

B3: α-La4 scFv (scFv, V domains shown)
VH: B1 VH with T17I, A21T, A35D, I53T, S66L, E102G, R103S, Y104L
VL: B2 VL
notes: The vector adds an N-terminal PelB leader; source: E. coli BL21 Gold, pEP-GFP11, culture supernatant; not shown: SV5, C-terminal, kept
Regarding B3, the binding result in test [3] is “binds”.

B4: α-La2 scFv (scFv, V domains shown)
VH: EVQLVETGGGLVKPGGSLRLSCAASGFTLSNAWMHWVRQAPGKGLEWVGRIRRKTDGGTTDYAAPVKGRFTISRDDSKNTLYLQMNSLKTEDTAVYYCSTDDYGGNWGQGTLVTVSS
VL: QSVLTQPASVSGSPGQSITISCTGTSSDVGSYNYVSWYQQHPGKAPKLMIYDVSNRPSGVSNRFSGSKSGNTASLTISGLQAEDEADYYCSSYTSSSTNVFGTGTQLTVL
notes: residues before the VL; VL of α-La2; linker between VL and VH; VH of α-La2; residues between the VH and the SV5 tag; Expressed from pEP-GFP11 with an N-terminal PelB leader and C-terminal SV5, 6x His and GFP strand 11 tags; limits of VL, linker and VH and the reading of GAHA and AS as vector-derived residues are my surmise; also called anti-La2; source: E. coli …
As to B4, the binding result in test [1] is “binds”.

B5: α-La2 scFv (scFv, V domains shown)
VH: B4 VH
VL: B4 VL
notes: The vector adds an N-terminal PelB leader; also called anti-La2; source: E. coli BL21 Gold, pEP-GFP11, culture supernatant; not shown: SV5, C-terminal, kept
In the case of B5, the binding result in test [3] is “binds”.

B6: α-La3 scFv (scFv, V domains shown)
VH: QVQLQESGPGLVKPSETLSLTCAISGDSVSSNSAAWNWIRQSPSRGLEWLGRTYYRSKWYNDYAVSVKSRITINPDTSKNQFSLQLNSVTPEDTAVYYCATGDAFDMWGQGTMVTVSS
VL: SYVLTQPPSVSGTPGQRVTISCSGSSSNIERNYVYWYQQLPGTAPKLLIYRNNQRPSGVPDRFSGSKSGTSASLAISGLRSEDEADYYCAAWDDSQNAYVFGTGTKLTVL
notes: residues before the VL; VL of α-La3; linker between VL and VH; VH of α-La3; residues between the VH and the SV5 tag; Expressed from pEP-GFP11 with an N-terminal PelB leader and C-terminal SV5, 6x His and GFP strand 11 tags; limits of VL, linker and VH and the reading of GAHA and AS as vector-derived residues are my surmise; also called anti-La3; source: E. coli …
B6: the binding result in test [1] and in test [2] was “binds” each time.

B7: α-La3 scFv (scFv, V domains shown)
VH: B6 VH
VL: B6 VL
notes: as for B3
As for B7, the binding result in test [3] is on record as “binds”.
